Test results as given in publication doi:10.1101/2023.03.09.531992.

Tests used:
[1] = biological target: clientized GST-S tail construct Thr1273Glu (SARS-CoV-2 S, Leu1244 to Thr1273) (SARS-CoV-2) (UniProt P0DTC2); assay: pull-down
[2] = biological target: clientized GST-S tail construct Thr1273Asp (SARS-CoV-2 S, Leu1244 to Thr1273) (SARS-CoV-2) (UniProt P0DTC2); assay: pull-down

“endogenous coatomer complex (COPI), mouse liver cytosol, Q8CIE6;Q9JIF7;O55029;Q9QZE5;Q5XJY5;O89079;P61924” was tested. Which fold binding against the Lys-x-Lys-x-xCT dibasic mutant [1] did it give?
The fold binding against the Lys-x-Lys-x-xCT dibasic mutant was 2 fold.

And the fold higher affinity than the wild-type GST-S tail construct [1]?
Its fold higher affinity than the wild-type GST-S tail construct is 17 fold.

And the fold binding against the Lys-x-Lys-x-xCT dibasic mutant [2]?
Its fold binding against the Lys-x-Lys-x-xCT dibasic mutant is 2 fold.

And the fold higher affinity than the wild-type GST-S tail construct [2]?
Its fold higher affinity than the wild-type GST-S tail construct is 17 fold.
